Test results published in publication PMC2782360.
pKd: −log10 of the molar value.

Tests used:
[1] = biological target: native 67 kDa laminin receptor (67LR) shed from T47D cells (human (endogenous in T47D)) (UniProt P08865); experiment: SPR
[2] = biological target: recombinant human 37 kDa laminin receptor precursor (37LRP) (human) (UniProt P08865); experiment: SPR

human laminin (complex) was tested, and the pKd [1] was 6.49 and the pKd [2] was 6.39.
